# Test results: IntAct's records for PubMed 26307080
# B1: Protein phosphatase 1 regulatory subunit 15B (Homo sapiens), Q5SWA1 (parent)
# chain: MEPGTGGSRKRLGPRAGFRFWPPFFPRRSQAGSSKFPTPLGPENSGNPTLLSSAQPETRVSYWTKLLSQLLAPLPGLLQKVLIWSQLFGGMFPTRWLDFAGVYSALRALKGREKPAAPTAQKSLSSLQLDSSDPSVTSPLDWLEEGIHWQYSPPDLKLELKAKGSALDPAAQAFLLEQQLWGVELLPSSLQSRLYSNRELGSSPSGPLNIQRIDNFSVVSYLLNPSYLDCFPRLEVSYQNSDGNSEVVGFQTLTPESSCLREDHCHPQPLSAELIPASWQGCPPLSTEGLPEIHHLRMKRLEFLQQASKGQDLPTPDQDNGYHSLEEEHSLLRMDPKHCRDNPTQFVPAAGDIPGNTQESTEEKIELLTTEVPLALEEESPSEGCPSSEIPMEKEPGEGRISVVDYSYLEGDLPISARPACSNKLIDYILGGASSDLETSSDPEGEDWDEEAEDDGFDSDSSLSDSDLEQDPEGLHLWNSFCSVDPYNPQNFTATIQTAARIVPEEPSDSEKDLSGKSDLENSSQSGSLPETPEHSSGEEDDWESSADEAESLKLWNSFCNSDDPYNPLNFKAPFQTSGENEKGCRDSKTPSESIVAISECHTLLSCKVQLLGSQESECPDSVQRDVLSGGRHTHVKRKKVTFLEEVTEYYISGDEDRKGPWEEFARDGCRFQKRIQETEDAIGYCLTFEHRERMFNRLQGTCFKGLNVLKQC
# Variants of: B1
# Conditions: with pp1g_human PPP1CC
row,effect of a mutation on the interaction,Variant
1,decreasing interaction strength,R658C

# Variants of: B1
# Conditions: with pp1g_human PPP1CC
# Remark: another data set of the same source
row,effect of a mutation on the interaction,Variant
1,disrupting interaction strength,R658C
